For 2 substances, IC50, inhibition of TGFβ1 activity in HEK-Blue TGFβ cells (QUANTI-Blue OD 620-655 nM) and EC50, 32Dβ cell proliferation (WST1, absorbance results are on record in patent publication US20260174833A1.

For test [1], the target named is TGFβ1 (R&D systems) (UniProt P01137). The experiment in a line: cell-based or functional assay.
Test [2] deals with IL2Rβ and common γ chain on 32Dβ cells. The test is described as follows: cell-based or functional assay.

UniProt P01137, sequence (P01137 279-390 limits assumed): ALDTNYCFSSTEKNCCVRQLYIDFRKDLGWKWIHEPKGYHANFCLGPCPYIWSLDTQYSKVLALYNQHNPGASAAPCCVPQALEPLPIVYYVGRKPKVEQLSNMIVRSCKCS

In test [1], “TGFR-Fc (R&D Systems) (from UniProt P37173 24-159) (Fc fusion)” had an IC50, inhibition of TGFβ1 activity in HEK-Blue TGFβ cells (QUANTI-Blue OD 620-655 nM) of 461 pM.

For the substance “recombinant IL-15 (from UniProt P40933 49-162) (ligand)”, the EC50, 32Dβ cell proliferation (WST1, absorbance at 450 nM) in test [2] worked out at 10.6 pM.
